Source: patent US20180346600A1 (AJOU UNIVERSITY INDUSTRY ACADEMIC COOPERATION FOUNDATION, published 2018)
Blank lines part the entries; values can stand above or below the binder they belong to.

Legend:
[1] = biological target: T1, displayed FcCH3A, KiH (Genentech) (T366S/L368A/Y407V), on yeast cell surface (human, UniProt P0DOX5 227-449 = IgG part); assay: flow cytometry histogram (PE, FL2-H) of diploid yeast: Flag-tagged secreted FcCH3B held on displayed FcCH3A, anti-Flag mouse mAb and PE anti-mouse antibody
T1 construct: also called KiH CH3A chain (yeast)
T1 Fc: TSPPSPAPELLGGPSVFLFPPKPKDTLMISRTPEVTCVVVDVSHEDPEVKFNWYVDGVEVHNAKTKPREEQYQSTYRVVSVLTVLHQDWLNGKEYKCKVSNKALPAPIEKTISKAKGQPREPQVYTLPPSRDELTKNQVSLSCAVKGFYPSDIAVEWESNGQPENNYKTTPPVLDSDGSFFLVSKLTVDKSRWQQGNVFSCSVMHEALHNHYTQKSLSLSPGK
Protocol: (§1) Specifically, the diploid in which the expression of the heterodimeric heavy chain constant region was induced was reacted with an antibody recognizing flag-tag included in the secreted FcCH3B (anti-Flag mouse mAb, F3165) (Sigma-Aldrich) and an antibody conjugated with PE (phycoerythrin conjugated anti-mouse mAb, sc-3738) (Santa Cruz biotechnology), and a signal of PE was analyzed by flow cytometry.

[2] = biological target: T2, Hole-Hole (displayed FcCH3A on yeast cell surface); assay: as above
T2 construct: also called Hole-Hole (Genentech) CH3A chain (yeast), T366S/L368A/Y407V
T2 Fc: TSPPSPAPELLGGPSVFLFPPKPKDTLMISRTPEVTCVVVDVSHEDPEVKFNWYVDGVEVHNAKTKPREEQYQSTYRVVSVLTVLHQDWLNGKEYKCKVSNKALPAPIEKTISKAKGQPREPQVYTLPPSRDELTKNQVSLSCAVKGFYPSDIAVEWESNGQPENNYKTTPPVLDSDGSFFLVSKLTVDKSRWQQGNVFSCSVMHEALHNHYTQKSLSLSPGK
Protocol: as §1

[3] = biological target: T3, displayed FcCH3A, B240 (K392S/K409R/D399L), on yeast cell surface (human, UniProt P0DOX5 227-449 = IgG part); assay: flow cytometry of diploid yeast: MFI of Flag-tagged secreted FcCH3B held on displayed FcCH3A (anti-Flag mouse mAb and PE anti-mouse antibody), normalised to EW-RVT = 100 %
T3 construct: also called B240 CH3A chain (yeast)
T3 Fc: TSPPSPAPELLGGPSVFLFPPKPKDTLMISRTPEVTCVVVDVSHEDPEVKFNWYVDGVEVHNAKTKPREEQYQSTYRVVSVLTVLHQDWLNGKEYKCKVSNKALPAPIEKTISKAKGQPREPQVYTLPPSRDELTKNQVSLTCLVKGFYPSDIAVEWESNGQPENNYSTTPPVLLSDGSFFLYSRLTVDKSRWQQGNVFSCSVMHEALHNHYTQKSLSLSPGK
Excerpt: (§2) FACS was sequentially performed four times. […] Table 9 below summarizes the mutation pairs introduced into individual clones selected from the respective LibA2 and LibB2 libraries.

[4] = biological target: T4, displayed FcCH3A, B256 (K392N/D399L), on yeast cell surface (human, UniProt P0DOX5 227-449 = IgG part); assay: as above
T4 construct: also called B256 CH3A chain (yeast)
T4 Fc: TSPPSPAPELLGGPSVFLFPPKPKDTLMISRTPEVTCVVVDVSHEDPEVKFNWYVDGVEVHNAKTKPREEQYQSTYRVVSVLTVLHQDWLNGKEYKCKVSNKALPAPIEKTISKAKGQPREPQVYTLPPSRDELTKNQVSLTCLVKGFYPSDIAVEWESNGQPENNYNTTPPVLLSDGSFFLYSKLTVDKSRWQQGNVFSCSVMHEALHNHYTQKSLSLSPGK
Excerpt: as §2

[5] = biological target: T5, displayed FcCH3A, B235 (K392C/D399L), on yeast cell surface (human, UniProt P0DOX5 227-449 = IgG part, chain 1 pos 168 (K392C): said to form an inter-chain disulfide with D399C of the CH3B partner); assay: as above
T5 construct: also called B235 CH3A chain (yeast)
T5 Fc: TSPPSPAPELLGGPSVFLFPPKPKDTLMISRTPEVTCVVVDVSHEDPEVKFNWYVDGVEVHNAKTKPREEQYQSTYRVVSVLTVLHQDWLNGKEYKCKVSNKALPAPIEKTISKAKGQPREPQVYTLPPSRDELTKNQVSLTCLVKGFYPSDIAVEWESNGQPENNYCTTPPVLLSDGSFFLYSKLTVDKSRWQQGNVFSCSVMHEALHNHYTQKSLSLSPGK
Excerpt: as §2

[6] = biological target: T6, displayed FcCH3A, B239 (K392L/D399L), on yeast cell surface (human, UniProt P0DOX5 227-449 = IgG part); assay: as above
T6 construct: also called B239 CH3A chain (yeast)
T6 Fc: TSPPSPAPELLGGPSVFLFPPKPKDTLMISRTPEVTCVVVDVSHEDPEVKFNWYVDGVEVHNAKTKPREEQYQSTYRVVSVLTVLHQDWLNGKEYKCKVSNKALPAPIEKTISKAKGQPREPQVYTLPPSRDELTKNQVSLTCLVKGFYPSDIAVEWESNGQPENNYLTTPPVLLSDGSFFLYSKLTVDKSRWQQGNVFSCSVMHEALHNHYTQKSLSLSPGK
Excerpt: as §2

[7] = biological target: T7, displayed FcCH3A, B215 (K392R/K409R/D399L), on yeast cell surface (human, UniProt P0DOX5 227-449 = IgG part); assay: as above
T7 construct: also called B215 CH3A chain (yeast)
T7 Fc: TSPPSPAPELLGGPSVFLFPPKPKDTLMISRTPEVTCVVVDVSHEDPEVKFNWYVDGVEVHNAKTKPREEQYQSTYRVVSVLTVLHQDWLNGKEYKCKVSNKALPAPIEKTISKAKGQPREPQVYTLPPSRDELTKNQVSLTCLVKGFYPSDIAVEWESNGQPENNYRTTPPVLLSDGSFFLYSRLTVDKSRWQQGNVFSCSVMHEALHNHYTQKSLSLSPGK
Excerpt: as §2

B1: secreted FcCH3B, KiH (Genentech) (T366W), from yeast (other)
chain: TSPPSPAPELLGGPSVFLFPPKPKDTLMISRTPEVTCVVVDVSHEDPEVKFNWYVDGVEVHNAKTKPREEQYQSTYRVVSVLTVLHQDWLNGKEYKCKVSNKALPAPIEKTISKAKGQPREPQVYTLPPSRDELTKNQVSLWCLVKGFYPSDIAVEWESNGQPENNYKTTPPVLDSDGSFFLYSKLTVDKSRWQQGNVFSCSVMHEALHNHYTQKSLSLSPGK
notes: also called KiH CH3B chain (yeast); not shown: flag-tag
binding result [1]: binds

B3: secreted FcCH3B, B240 (D399G/K392G/K409M), from yeast (other)
chain: TSPPSPAPELLGGPSVFLFPPKPKDTLMISRTPEVTCVVVDVSHEDPEVKFNWYVDGVEVHNAKTKPREEQYQSTYRVVSVLTVLHQDWLNGKEYKCKVSNKALPAPIEKTISKAKGQPREPQVYTLPPSRDELTKNQVSLTCLVKGFYPSDIAVEWESNGQPENNYGTTPPVLGSDGSFFLYSMLTVDKSRWQQGNVFSCSVMHEALHNHYTQKSLSLSPGK
notes: also called B240 CH3B chain (yeast); not shown: flag-tag
binding result [3]: binds

B5: secreted FcCH3B, B235 (D399C/K392G/K409M), from yeast (other)
chain: TSPPSPAPELLGGPSVFLFPPKPKDTLMISRTPEVTCVVVDVSHEDPEVKFNWYVDGVEVHNAKTKPREEQYQSTYRVVSVLTVLHQDWLNGKEYKCKVSNKALPAPIEKTISKAKGQPREPQVYTLPPSRDELTKNQVSLTCLVKGFYPSDIAVEWESNGQPENNYGTTPPVLCSDGSFFLYSMLTVDKSRWQQGNVFSCSVMHEALHNHYTQKSLSLSPGK
notes: also called B235 CH3B chain (yeast); not shown: flag-tag
binding result [5]: binds

B6: secreted FcCH3B, B239 (D399S/K392G/K409M), from yeast (other)
chain: TSPPSPAPELLGGPSVFLFPPKPKDTLMISRTPEVTCVVVDVSHEDPEVKFNWYVDGVEVHNAKTKPREEQYQSTYRVVSVLTVLHQDWLNGKEYKCKVSNKALPAPIEKTISKAKGQPREPQVYTLPPSRDELTKNQVSLTCLVKGFYPSDIAVEWESNGQPENNYGTTPPVLSSDGSFFLYSMLTVDKSRWQQGNVFSCSVMHEALHNHYTQKSLSLSPGK
notes: also called B239 CH3B chain (yeast); not shown: flag-tag
binding result [6]: binds

The next lines start with the values.

binding result [2]: no binding
B2: Hole-Hole (secreted FcCH3B from yeast) (other)
secreted Fc chain (hinge-CH2-CH3B): TSPPSPAPELLGGPSVFLFPPKPKDTLMISRTPEVTCVVVDVSHEDPEVKFNWYVDGVEVHNAKTKPREEQYQSTYRVVSVLTVLHQDWLNGKEYKCKVSNKALPAPIEKTISKAKGQPREPQVYTLPPSRDELTKNQVSLSCAVKGFYPSDIAVEWESNGQPENNYKTTPPVLDSDGSFFLVSKLTVDKSRWQQGNVFSCSVMHEALHNHYTQKSLSLSPGK
notes: also called Hole-Hole (Genentech) CH3B chain (yeast), T366S/L368A/Y407V

binding result [4]: binds
B4: secreted FcCH3B, B256 (D399V/K392G/K409M), from yeast (other)
chain: TSPPSPAPELLGGPSVFLFPPKPKDTLMISRTPEVTCVVVDVSHEDPEVKFNWYVDGVEVHNAKTKPREEQYQSTYRVVSVLTVLHQDWLNGKEYKCKVSNKALPAPIEKTISKAKGQPREPQVYTLPPSRDELTKNQVSLTCLVKGFYPSDIAVEWESNGQPENNYGTTPPVLVSDGSFFLYSMLTVDKSRWQQGNVFSCSVMHEALHNHYTQKSLSLSPGK
notes: also called B256 CH3B chain (yeast); not shown: flag-tag

binding result [7]: binds
B7: secreted FcCH3B, B215 (D399W/K392G/K409M), from yeast (other)
chain: TSPPSPAPELLGGPSVFLFPPKPKDTLMISRTPEVTCVVVDVSHEDPEVKFNWYVDGVEVHNAKTKPREEQYQSTYRVVSVLTVLHQDWLNGKEYKCKVSNKALPAPIEKTISKAKGQPREPQVYTLPPSRDELTKNQVSLTCLVKGFYPSDIAVEWESNGQPENNYGTTPPVLWSDGSFFLYSMLTVDKSRWQQGNVFSCSVMHEALHNHYTQKSLSLSPGK
notes: also called B215 CH3B chain (yeast); not shown: flag-tag
